± gives the half width of the 95% confidence interval.
Legend:
[1] = folding stability dG unfold (combined trypsin and chymotrypsin); higher = more stable
Procedure, shortened: (§1)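 Unfolding free energy was derived, per protease or combined, by relating Bayesian-fitted K50 values from sequencing counts to a sequence-predicted unfolded-state K50 and a shared folded-state K50. The underlying digests exposed cysteine-free mini-proteins under 80 residues, in a PA-tagged cDNA display construct, to trypsin and chymotrypsin at 11 threefold-diluted concentrations and to a no-protease condition. A filter kept only designs with AlphaFold2 dimer inter-PAE above 15.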

[2] = folding stability dG unfold from trypsin proteolysis; higher = more stable
Procedure, shortened: as §1

[3] = folding stability dG unfold from chymotrypsin proteolysis; higher = more stable
Procedure, shortened: as §1

Row | Sequence | folding stability dG unfold [1] | folding stability dG unfold [2] | folding stability dG unfold [3]
1 | SAGGSAGGSAGMTAKIVERRVLPGDGYLLLVEHPDGSRSAIVVPPELLENLDISDTVEFDSAGGSAGGSAGG [r11_943_TrMRF] | 0.598 ± 0.064 kcal/mol | 0.576 ± 0.038 kcal/mol | 0.591 ± 0.026 kcal/mol
2 | SAGGSAGGSAGMTIKVYDPKTGEKILEIEIDPSLTPEQLKALADELRKKLPPGARIEIVPSAGGSAGGSAGG [r11_1081_TrROS_Hall] | 4.38 ± 0.13 kcal/mol | 4.56 ± 0.2 kcal/mol | 3.72 ± 0.088 kcal/mol
3 | SAGGSAGGSAGMTVEDLEFDIPFESEEEAIEYLKKKLPKDYTIKPIGFEPENGKLKVKVTKKSAGGSAGGSA [r18_429_JUSTAS] | 0.8 ± 0.3 kcal/mol | 0.485 ± 0.19 kcal/mol | 0.789 ± 0.15 kcal/mol
4 | SAGGSAGGSAGMTVTETPVLVRYPEDGSVRPFTLTTSPEPGTLTLDLPPAEWPPLEITPPGSAGGSAGGSAG [r3_454_JUSTAS] | -0.324 ± 0.17 kcal/mol | -0.0964 ± 0.12 kcal/mol | -0.486 ± 0.33 kcal/mol
5 | SAGGSAGGSAGMVEVEVRKTENGNYVVTTTTVTTSPVTTPNPYTRTVTTVTTSTTVIPATSAGGSAGGSAGG [r11_403_JUSTAS] | -0.187 ± 0.39 kcal/mol | -0.758 ± 0.3 kcal/mol | -0.101 ± 0.23 kcal/mol
6 | SAGGSAGGSAGMVEVYSEPDGTVIVKETVPGKVVITVLEKVPGGPGLNPVTTTVVPPGLLSAGGSAGGSAGG [r11_844_JUSTAS] | 1.11 ± 0.043 kcal/mol | 1.4 ± 0.037 kcal/mol | 0.786 ± 0.058 kcal/mol
7 | SAGGSAGGSAGMVKSLSELLAENPDLSIEEIKAKLEKEGYKVEVKKEGDTPVVYIKKGKKSAGGSAGGSAGG [r11_707_JUSTAS] | 1.12 ± 0.16 kcal/mol | 1.43 ± 0.04 kcal/mol | 0.765 ± 0.14 kcal/mol
8 | SAGGSAGGSAGMVLPVTKVYRDGDTVYLYFDGLGLIAEIRIDDDKITLPSVYRVHPDEDLSAGGSAGGSAGG [r17_30_TrMRF] | 0.691 ± 0.095 kcal/mol | 0.835 ± 0.038 kcal/mol | 0.438 ± 0.11 kcal/mol
9 | SAGGSAGGSAGMVLVFDKKTGELYLYDKNGKLVAKFKVEGAEEVVVLVFDPDTNELKLVPSAGGSAGGSAGG [r17_413_TrROS_Hall] | 3.4 ± 0.065 kcal/mol | 2.49 ± 0.049 kcal/mol | 3.68 ± 0.037 kcal/mol
10 | SAGGSAGGSAGMVNTTLTTAPDGTRIVTTTFPENPDLVLRTTYAPDGSVLETELVPSSQLSAGGSAGGSAGG [r11_909_JUSTAS] | 1.52 ± 0.026 kcal/mol | 1.98 ± 0.045 kcal/mol | 1.04 ± 0.023 kcal/mol
11 | SAGGSAGGSAGMVVETSKNPPTSDTVVTTLVPSPNSTTVTTTIVSPDPNTIKETTTTPTPSAGGSAGGSAGG [r11_100_JUSTAS] | 1.8 ± 0.034 kcal/mol | 2.41 ± 0.064 kcal/mol | 1.23 ± 0.019 kcal/mol
12 | SAGGSAGGSAGMVVKVKEHPITITKLPDGSWRLTHPASGKVILLPGVDEATAKAIAEELTSAGGSAGGSAGG [r11_1085_JUSTAS] | 1.58 ± 0.054 kcal/mol | 1.26 ± 0.015 kcal/mol | 1.76 ± 0.027 kcal/mol
13 | SAGGSAGGSAGMVVTINDPKKAKKIDENSVITIPDGKKYKVVKVEVDEKNGYWTLTIEPLSAGGSAGGSAGG [r11_316_JUSTAS] | 2.18 ± 0.15 kcal/mol | 1.09 ± 0.055 kcal/mol | 2.55 ± 0.051 kcal/mol
14 | SAGGSAGGSAGMYRVEIEIEMSKEQLEALKKNKNLKPGQKIDLKVKIKIEPVKLDKNGKLSAGGSAGGSAGG [r17_194_TrROS_Hall] | 2.32 ± 0.13 kcal/mol | 1.57 ± 0.051 kcal/mol | 2.43 ± 0.036 kcal/mol
15 | SAGGSAGGSAGNIMILNKDGKIIAEIKIEEKYEIDKDGKIKKTKKIEIKIVPVPPGEKIKSAGGSAGGSAGG [r17_480_TrROS_Hall] | 1.25 ± 0.29 kcal/mol | 0.867 ± 0.056 kcal/mol | 1.94 ± 0.11 kcal/mol
16 | SAGGSAGGSAGNKKAEEIKKILEEKGFEVVSVKVYKPKGNKPVVKIEVKAKNGKKFTILASAGGSAGGSAGG [r11_780_TrMRF] | 3.22 ± 0.2 kcal/mol | 2.96 ± 0.2 kcal/mol | 3.28 ± 0.039 kcal/mol
17 | SAGGSAGGSAGNKYLIKVKKKNGNKSEELEIEVEDNPEIAEKIAEELKKKGNIVSVEIKKASAGGSAGGSAG [r3_310_TrMRF] | 0.66 ± 0.23 kcal/mol | 0.761 ± 0.1 kcal/mol | 0.403 ± 0.21 kcal/mol
18 | SAGGSAGGSAGNTIEIEINGKPIYVEFEPLPEGMVKVKIYFPDGKKEEITLPANDPIKIGSAGGSAGGSAGG [r11_525_TrROS] | 1.58 ± 0.13 kcal/mol | 1.53 ± 0.068 kcal/mol | 1.6 ± 0.045 kcal/mol
19 | SAGGSAGGSAGNVTLTRVEVLEGEDDRPLIKATFSFEPGPQVLVFEGDNPDDIEIDVDVGSAGGSAGGSAGG [r17_64_TrMRF] | -0.0491 ± 0.13 kcal/mol | -0.45 ± 0.096 kcal/mol | 0.0818 ± 0.12 kcal/mol
20 | SAGGSAGGSAGNWIIRIRWPGKSIMFVLPEGMNVDEIATNIQDEFNYPIDIEVIPPGQPISAGGSAGGSAGG [r11_805_TrROS] | 2.5 ± 0.15 kcal/mol | 2.15 ± 0.071 kcal/mol | 2.65 ± 0.062 kcal/mol
21 | SAGGSAGGSAGNWRWIMIPIKVPPGLEAGEEIEIKIPNGVEVWYHYNEPGTIWMMIRVPDSAGGSAGGSAGG [r11_362_TrROS] | 2.88 ± 0.085 kcal/mol | 2.69 ± 0.069 kcal/mol | 2.96 ± 0.037 kcal/mol

Row | Sequence | folding stability dG unfold [1] | folding stability dG unfold [2] | folding stability dG unfold [3]
22 | SAGGSAGGSAGPEKMRIEDIEHERNPEDGRHTVKIKIPNGPDITFQFTDPEDLDDFKLEVSAGGSAGGSAGG [r11_711_TrROS] | 0.0382 ± 0.22 kcal/mol | -0.274 ± 0.079 kcal/mol | 0.334 ± 0.075 kcal/mol
23 | SAGGSAGGSAGPEKTVTLRVKITNADGQEQTLELTAETEEEALAALRALLPPGAKVEIEPSAGGSAGGSAGG [r11_671_TrROS_Hall] | 3.35 ± 0.087 kcal/mol | 1.99 ± 0.067 kcal/mol | 3.66 ± 0.07 kcal/mol
24 | SAGGSAGGSAGPIKITSVEYDPNSGTIIARFPDGVVIRIKMNPDGNFKIDEIYPIKPGDLSAGGSAGGSAGG [r17_61_TrROS] | 2.02 ± 0.14 kcal/mol | 2.37 ± 0.088 kcal/mol | 1.57 ± 0.08 kcal/mol
25 | SAGGSAGGSAGPKIEIEKLPGPYYLLKIYLPDENGNPIEALVVATSPEEAVEKLKELLKSSAGGSAGGSAGG [r11_819_TrMRF] | 3.18 ± 0.098 kcal/mol | 3.21 ± 0.14 kcal/mol | 3.15 ± 0.043 kcal/mol
26 | SAGGSAGGSAGPMYIITHTSPNEPIEFIFPPDDAEEFLKKLKLPPNMNIKVEPIDPDDMKSAGGSAGGSAGG [r17_395_TrROS] | 0.367 ± 0.18 kcal/mol | 0.0355 ± 0.07 kcal/mol | 0.715 ± 0.21 kcal/mol
27 | SAGGSAGGSAGPNMVPIGKLTIEIRNPDNGNPLRIRIDLYVVPAPDGWMIALRILDIEPPSAGGSAGGSAGG [r11_113_TrROS] | 3.7 ± 0.26 kcal/mol | 2.45 ± 0.13 kcal/mol | 4.15 ± 0.21 kcal/mol
28 | SAGGSAGGSAGPPDFQIYVDIETQRNPGNGRYYVTMKIYIGNKPIVEITIPAGEPLKIKFSAGGSAGGSAGG [r17_281_TrROS] | 3.4 ± 0.14 kcal/mol | 2.66 ± 0.12 kcal/mol | 3.9 ± 0.045 kcal/mol
29 | SAGGSAGGSAGPPDIEVNYYRYEGYYRVNISFPNNRPIEIMMKGPGMPAEDFVKKLLDQLSAGGSAGGSAGG [r11_313_TrROS] | 2.1 ± 0.14 kcal/mol | 1.84 ± 0.1 kcal/mol | 2.35 ± 0.059 kcal/mol
30 | SAGGSAGGSAGPPKPIWFRVKEVEVNPDNGTLEIKFENGQTITIPPENIENLPPGDWIRISAGGSAGGSAGG [r11_124_TrROS] | 1.33 ± 0.058 kcal/mol | 0.838 ± 0.029 kcal/mol | 1.53 ± 0.061 kcal/mol
31 | SAGGSAGGSAGPPNIKMEPETRTYVLPGGWAIRVSIMKIKPPDGKPLIMAMEEIIPPDDPSAGGSAGGSAGG [r17_312_TrROS] | 1.27 ± 0.31 kcal/mol | 0.958 ± 0.1 kcal/mol | 1.27 ± 0.23 kcal/mol
32 | SAGGSAGGSAGPPPFKLKIDEMEMADDMFRIKLTIEDPNGEVTVDYWIGNQPFKLRIKPDSAGGSAGGSAGG [r17_45_TrROS] | 2.12 ± 0.17 kcal/mol | 1.53 ± 0.039 kcal/mol | 2.39 ± 0.17 kcal/mol
33 | SAGGSAGGSAGPTYKIKIYFEDTGVEAEVEINEDGSLTITVPKELLPPGAKVKVEIVKVPSAGGSAGGSAGG [r17_392_TrROS_Hall] | 1.57 ± 0.26 kcal/mol | 1.28 ± 0.057 kcal/mol | 1.66 ± 0.098 kcal/mol
34 | SAGGSAGGSAGPVLKIKVEVKLEKKYDKNGKLVEEKLEVKVEIELLEPAPPASDEELKKKSAGGSAGGSAGG [r11_131_TrROS_Hall] | 1.6 ± 0.39 kcal/mol | 0.29 ± 0.24 kcal/mol | 1.69 ± 0.2 kcal/mol
35 | SAGGSAGGSAGPVRTIEILFPFDPGESLEFEIRIPGNGRKIKVSIEPYPNGWMRIKITVYSAGGSAGGSAGG [r17_131_TrROS] | 5.69 ± 0.21 kcal/mol | 4.75 ± 0.21 kcal/mol | 5.68 ± 0.26 kcal/mol
36 | SAGGSAGGSAGPWVWIIMIHMEIERVTVEVRPDPDGKWEYKLEITIKIEIHIIPLPPGATSAGGSAGGSAGG [r11_24_TrROS] | 5.26 ± 0.17 kcal/mol | 3.55 ± 0.15 kcal/mol | 5.37 ± 0.11 kcal/mol
37 | SAGGSAGGSAGPYKVKVTLKNGEVLEFTIPEEFKDLKEVKIDLPEELKENIVKVEIEPLESAGGSAGGSAGG [r17_528_TrMRF] | 2.95 ± 0.059 kcal/mol | 2.56 ± 0.1 kcal/mol | 3.199 ± 0.02 kcal/mol
38 | SAGGSAGGSAGQTLLVEVNGQLAEITIDPDVPGQITITLPNGEQITLEVRLEPPPPPEEESAGGSAGGSAGG [r17_85_TrROS_Hall] | 1.6 ± 0.16 kcal/mol | 2.08 ± 0.3 kcal/mol | 1.39 ± 0.17 kcal/mol
39 | SAGGSAGGSAGREIADEIKDILQEKGFEIKDIEVTRPPNGYPMVEITVRHDNGKKWTIWISAGGSAGGSAGG [r11_780_TrROS] | 1.76 ± 0.099 kcal/mol | 1.5 ± 0.038 kcal/mol | 1.91 ± 0.095 kcal/mol
40 | SAGGSAGGSAGRLLLEGLGADEVLRLEPEPDRVPIVVRHRDGGRDVVIEMDFEEAVRAILSAGGSAGGSAGG [r11_630_TrMRF] | -0.771 ± 0.42 kcal/mol | -1.22 ± 0.67 kcal/mol | -0.538 ± 0.28 kcal/mol
41 | SAGGSAGGSAGRVEKIVSNLKPLGYEVLSVEETEDYVLAVVYDPFTDEPRVFRFPKDSPFSAGGSAGGSAGG [r11_428_TrMRF] | 1.41 ± 0.11 kcal/mol | 1.27 ± 0.017 kcal/mol | 1.18 ± 0.13 kcal/mol
42 | SAGGSAGGSAGRVVKITLPDGSSLDIDVPADDDLTKEEIEARLTVPPGEKVSIKSIEILEESAGGSAGGSAG [r3_465_JUSTAS] | 0.628 ± 0.085 kcal/mol | 0.0468 ± 0.037 kcal/mol | 0.899 ± 0.033 kcal/mol

— the supplement of paper PMC12764529
